Reference: the supplement of paper PMC9732359
± gives the uncertainty stated by the source.

Experiment: protein stability index of a GFP-peptide fusion (yeast GPS) (PSI 1-4); higher = more stable; sorted into four equal gates, so the index is relative within each strain
In short: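 Yeast carrying a pooled library were grown to mid-log phase in leucine-free medium. Each library plasmid expresses Cherry and has a tiled 17-residue yeast protein peptide fused downstream of GFP. Cells were sorted into four equal gates by GFP/Cherry ratio, and plasmids from each gate were PCR-amplified, Illumina-sequenced and assigned to strains by barcode. Summing, across gates, the read frequency times the gate number gave each peptide's protein stability index.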

GEALPNKFHKSIREDIL [SIR2]
protein stability index (doa10∆): 3.16 ± 0.14 | protein stability index (pdr5∆): 3.04 ± 0.11 | protein stability index (san1∆): 2.7 ± 0.096 | protein stability index (ubr1∆): 2.76 ± 0.07

GEEDADEEETAEGQTNS [RPN1]
protein stability index (doa10∆): 3.26 ± 0.18 | protein stability index (pdr5∆): 3.16 ± 0.26 | protein stability index (san1∆): 3.01 ± 0.14

GEFSGKNFSPTKRVEKP [RRP6]
protein stability index (doa10∆): 2.37 ± 0.089 | protein stability index (pdr5∆): 2.47 ± 0.094 | protein stability index (san1∆): 2.54 ± 0.078 | protein stability index (ubr1∆): 3.22 ± 0.059

GEGPFTVKFKHMDYDGN [YMR129W/POM152]
protein stability index (doa10∆): 2.79 ± 0.11 | protein stability index (pdr5∆): 2.86 ± 0.068 | protein stability index (san1∆): 2.78 ± 0.11 | protein stability index (ubr1∆): 2.78 ± 0.059

GEIEIKPNEEEELGFWD [RPN13]
protein stability index (doa10∆): 3.15 ± 0.13 | protein stability index (pdr5∆): 3.19 ± 0.097 | protein stability index (san1∆): 3.25 ± 0.074 | protein stability index (ubr1∆): 3.24 ± 0.094

GEILLPDIADIPRTFRT [SNF5]
protein stability index (doa10∆): 2.82 ± 0.14 | protein stability index (pdr5∆): 3.18 ± 0.12 | protein stability index (san1∆): 3.19 ± 0.12 | protein stability index (ubr1∆): 3.05 ± 0.1

GEKTLSSLALVFALHKY [SMC4]
protein stability index (doa10∆): 2.57 ± 0.054 | protein stability index (pdr5∆): 2.48 ± 0.066 | protein stability index (san1∆): 1.9 ± 0.12 | protein stability index (ubr1∆): 2.98 ± 0.051

GENIDADNDGPRINNIS [SNF2]
protein stability index (doa10∆): 3.44 ± 0.09 | protein stability index (pdr5∆): 3.53 ± 0.11 | protein stability index (san1∆): 3.28 ± 0.065 | protein stability index (ubr1∆): 3.02 ± 0.09

GFSMNNPYNIVPQGKIV [SMC3]
protein stability index (doa10∆): 3.05 ± 0.11 | protein stability index (pdr5∆): 2.93 ± 0.071 | protein stability index (san1∆): 3.08 ± 0.085 | protein stability index (ubr1∆): 3.09 ± 0.062

GFSPTSPTYSPTSPAYS [RPO21]
protein stability index (doa10∆): 2.81 ± 0.052 | protein stability index (pdr5∆): 2.74 ± 0.043 | protein stability index (san1∆): 2.94 ± 0.051 | protein stability index (ubr1∆): 2.39 ± 0.038

GGAYTVSTAAAATVRST [RPL43A]
protein stability index (doa10∆): 2.1 ± 0.053 | protein stability index (pdr5∆): 2.25 ± 0.049 | protein stability index (san1∆): 1.95 ± 0.069 | protein stability index (ubr1∆): 2.14 ± 0.048

GGLFGNSAQNNSTTSGG [YGR119C/NUP57]
protein stability index (doa10∆): 3.08 ± 0.069 | protein stability index (pdr5∆): 3.36 ± 0.11 | protein stability index (san1∆): 2.78 ± 0.068 | protein stability index (ubr1∆): 3.06 ± 0.096

GGQGNTDDYFEELRDLY [FAS1]
protein stability index (doa10∆): 3.22 ± 0.088 | protein stability index (pdr5∆): 3.51 ± 0.073 | protein stability index (san1∆): 3.3 ± 0.057 | protein stability index (ubr1∆): 3.28 ± 0.059

GGSNYMSNLPFGLGYGD [RPC31]
protein stability index (doa10∆): 2.83 ± 0.28 | protein stability index (pdr5∆): 3.15 ± 0.19 | protein stability index (ubr1∆): 3.16 ± 0.18

GHLPEVSSKCNDIHLRF [ECM29]
protein stability index (doa10∆): 2.69 ± 0.11 | protein stability index (pdr5∆): 2.92 ± 0.082 | protein stability index (ubr1∆): 3.17 ± 0.17

GHRMKNAQSKLSLTLNT [SNF2]
protein stability index (doa10∆): 1.94 ± 0.056 | protein stability index (pdr5∆): 1.73 ± 0.04 | protein stability index (san1∆): 1.79 ± 0.065 | protein stability index (ubr1∆): 2.24 ± 0.041

GHVKPVRCVNCSKSIPK [RPS26A]
protein stability index (doa10∆): 2.8 ± 0.1 | protein stability index (pdr5∆): 2.7 ± 0.11 | protein stability index (san1∆): 2.16 ± 0.19 | protein stability index (ubr1∆): 3.06 ± 0.14

GIACAGKGLQSAIDVLD [RPN2]
protein stability index (doa10∆): 2.15 ± 0.068 | protein stability index (pdr5∆): 2.52 ± 0.077 | protein stability index (san1∆): 2.48 ± 0.1 | protein stability index (ubr1∆): 2.75 ± 0.071

GIDQYSFNVKENQPFHG [AAR2]
protein stability index (doa10∆): 2.65 ± 0.058 | protein stability index (pdr5∆): 2.88 ± 0.058 | protein stability index (san1∆): 2.82 ± 0.048 | protein stability index (ubr1∆): 2.9 ± 0.051

GIGALFTQQELQKQMGI [RPC34]
protein stability index (doa10∆): 2.93 ± 0.11 | protein stability index (pdr5∆): 3.39 ± 0.095 | protein stability index (san1∆): 3.29 ± 0.085 | protein stability index (ubr1∆): 2.69 ± 0.11

GIKKHSLWRRTVYSLSQ [YDL116W/NUP84]
protein stability index (doa10∆): 1.44 ± 0.066 | protein stability index (pdr5∆): 1.29 ± 0.071 | protein stability index (san1∆): 1.29 ± 0.14 | protein stability index (ubr1∆): 1.48 ± 0.041

GIKLQMQNSKVESVCQK [SMC4]
protein stability index (doa10∆): 2.55 ± 0.074 | protein stability index (pdr5∆): 2.45 ± 0.077 | protein stability index (san1∆): 2.59 ± 0.08 | protein stability index (ubr1∆): 2.5 ± 0.084

GIKPPKGVLLYGPPGTG [RPT4]
protein stability index (doa10∆): 2.73 ± 0.13 | protein stability index (pdr5∆): 2.62 ± 0.072 | protein stability index (san1∆): 2.22 ± 0.22 | protein stability index (ubr1∆): 2.01 ± 0.075

GIRGKLVTIEGALIHKA [SMC1]
protein stability index (doa10∆): 3.33 ± 0.2 | protein stability index (pdr5∆): 2.95 ± 0.17 | protein stability index (san1∆): 2.88 ± 0.13

GITHFRAGMTHEDEKLI [PRP8]
protein stability index (doa10∆): 2.62 ± 0.079 | protein stability index (pdr5∆): 2.47 ± 0.065 | protein stability index (san1∆): 3.1 ± 0.059 | protein stability index (ubr1∆): 3.14 ± 0.044

GKAKGDIPGVRFKVVKV [RPS23A]
protein stability index (doa10∆): 3.32 ± 0.19 | protein stability index (pdr5∆): 3.42 ± 0.18
